From paper PMC3088358
pKd, pKi: −log10 of the molar value.

What was measured:
[1] = biological target: recombinant human BMP1 protein (human) (UniProt P13497); assay: enzyme inhibition kinetics
[2] = biological target: Xenopus Crescent-Flag (Xenopus laevis); assay: SPR

pKi [1] | pKd [2] | Substance
7.23 | – | Xenopus Crescent-Flag (natural protein)
– | 7.96 | recombinant human BMP1 protein (from UniProt P13497 23-986) (enzyme)
